The values that follow come from patent publication US10023909.

Where two headings read alike, the source gives them in different places.

This data set has as its target DNMT1 (Mus musculus) (UniProt P13864). The following applies: 5mC and 5hmC on top strand only, SAM, 37 C, 4 h.
Sequence of UniProt P13864 (P13864 other isoform, or with tags, fused parts or gaps): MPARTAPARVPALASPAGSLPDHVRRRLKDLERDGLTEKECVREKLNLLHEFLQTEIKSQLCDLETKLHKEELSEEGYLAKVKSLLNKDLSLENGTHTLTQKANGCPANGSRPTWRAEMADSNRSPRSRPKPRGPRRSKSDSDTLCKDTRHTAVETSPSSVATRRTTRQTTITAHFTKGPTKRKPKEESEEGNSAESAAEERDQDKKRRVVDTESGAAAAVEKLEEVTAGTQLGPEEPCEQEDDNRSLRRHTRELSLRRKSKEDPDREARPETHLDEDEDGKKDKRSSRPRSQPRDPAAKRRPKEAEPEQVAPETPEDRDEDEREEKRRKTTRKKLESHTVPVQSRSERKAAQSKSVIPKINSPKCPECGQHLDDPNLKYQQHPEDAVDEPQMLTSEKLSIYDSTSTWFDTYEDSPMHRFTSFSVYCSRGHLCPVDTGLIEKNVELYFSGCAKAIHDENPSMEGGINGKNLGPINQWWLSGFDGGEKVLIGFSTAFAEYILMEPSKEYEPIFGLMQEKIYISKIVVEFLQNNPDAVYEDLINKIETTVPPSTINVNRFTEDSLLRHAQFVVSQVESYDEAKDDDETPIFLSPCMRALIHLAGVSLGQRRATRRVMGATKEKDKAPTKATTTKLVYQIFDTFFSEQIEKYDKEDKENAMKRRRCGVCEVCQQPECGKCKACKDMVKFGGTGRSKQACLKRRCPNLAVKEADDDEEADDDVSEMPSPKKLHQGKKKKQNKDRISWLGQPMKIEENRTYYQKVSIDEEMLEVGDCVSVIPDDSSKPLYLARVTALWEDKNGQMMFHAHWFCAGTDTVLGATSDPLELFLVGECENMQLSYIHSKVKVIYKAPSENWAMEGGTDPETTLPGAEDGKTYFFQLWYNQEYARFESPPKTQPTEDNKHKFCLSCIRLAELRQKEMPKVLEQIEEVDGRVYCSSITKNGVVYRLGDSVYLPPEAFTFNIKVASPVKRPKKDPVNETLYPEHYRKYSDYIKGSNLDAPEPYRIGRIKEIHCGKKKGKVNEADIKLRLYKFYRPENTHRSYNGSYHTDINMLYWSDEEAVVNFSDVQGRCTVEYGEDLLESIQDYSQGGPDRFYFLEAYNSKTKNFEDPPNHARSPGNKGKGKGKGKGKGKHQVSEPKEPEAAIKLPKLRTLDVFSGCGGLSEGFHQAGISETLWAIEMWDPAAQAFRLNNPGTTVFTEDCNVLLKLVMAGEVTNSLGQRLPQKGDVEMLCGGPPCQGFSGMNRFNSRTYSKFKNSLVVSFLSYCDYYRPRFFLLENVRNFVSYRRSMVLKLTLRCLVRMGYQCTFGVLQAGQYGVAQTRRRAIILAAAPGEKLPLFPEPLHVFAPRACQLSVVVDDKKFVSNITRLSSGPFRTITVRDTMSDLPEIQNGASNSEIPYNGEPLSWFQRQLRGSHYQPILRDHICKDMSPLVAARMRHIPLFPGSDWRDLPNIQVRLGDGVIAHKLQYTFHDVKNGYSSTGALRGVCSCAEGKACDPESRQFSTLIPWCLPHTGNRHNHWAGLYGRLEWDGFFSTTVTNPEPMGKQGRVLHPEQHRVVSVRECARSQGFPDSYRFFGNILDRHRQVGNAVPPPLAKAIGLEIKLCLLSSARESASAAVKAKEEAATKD

Under “no methylation across from 5hmC”, “112 bp 5hmC:C:5meC top/unmodified bottom duplex, hemi-5hmC CpG site” yielded an activity of 0%.
With “112 bp 5hmC:C:5meC top/unmodified bottom duplex, hemi-5meC CpG site”, the activity (methylation by bisulfite sequencing (14 of 16 clones)) was 87.5%.
With “112 bp 5hmC:C:5meC top/unmodified bottom duplex, unmodified CpG site”, the activity (no methylation by bisulfite sequencing) was determined as 0%.
